From patent US10105454B2, “Ultrashort peptides as exogenous second harmonic probes for bioimaging applications” (Agency for Science, Technology and Research, priority 2014, dated 2018)
Values joined by “and” are separate entries in the source; they are usually repeats but may differ in a detail not shown here. Equal entries are not always repeated. No end group written: not given here.

Legend:
HeLa cells [1] = assay: MTS cytotoxicity test, HeLa cells; format: cell-based, human; conditions: 48 h, 0.1 to 1000 μg/mL
Description: (§1) In order to use LK6 for bioimaging applications, such as monitoring cells and in vivo imaging, we assessed the cytotoxicity of LK6 by the MTS test. The MTS test was applied to two human cell lines, HeLa and primary human dermal fibroblasts (HDF). The toxicity of LK6 was measured at 0.1, 1, 10, 100 and 1000 μg/mL. Cells were exposed to cell culture media containing LK6 solution for 48 h. […] Calcein AM can penetrate cell membrane and be converted to cell membrane impermeable green fluorescent calcein, while red fluorescent EthD-1 is excluded by the intact cell membrane of live cells.
(§2) We cultured both HeLa and human dermal fibroblasts in DMEM supplemented with 10% fetal bovine serum and 1% penicillin/streptomycin (Life technologies, Singapore).
(§3) In order to use LK6 for bioimaging applications, such as in vitro monitoring cells and in vivo imaging the whole animal, we assessed the cytotoxicity of LK6 by the MTS test and live/dead assay with two human cell lines, human epithelial carcinoma cells (HeLa) and primary human dermal fibroblasts (HDF).

[2] = at 12 mM, ref [18]; cited from earlier work
[3] = tested on: primary human dermal fibroblasts (HDF); assay: MTS cytotoxicity test, human dermal fibroblasts; format: cell-based; conditions: 48 h, 0.1 to 1000 μg/mL
Description: as §1, §2, §3

[4] = Powder SHG efficiency (Kurtz and Perry powder technique, sucrose standard); format: physicochemical; conditions: relative to sucrose; average ± standard deviation
Source text: (§4) We acquired SHG images using a commercial laser scanning microscopic imaging system (Zeiss LSM 510 META, Jena, Germany) coupled to a mode-locked femtosecond Ti: sapphire laser (Mai-Tai broadband, Spectra-Physics), tunable from 710 nm to 990 nm. To achieve spectral analysis and detect the SHG signal, we used the META detector with 32-gated photon counting module.
All these peptides are SHG-active. We used a powder technique developed by Kurtz and Perry to evaluate the SHG efficiency of these second-order nonlinear optical materials. Sucrose, having a relatively modest nonlinearity, was chosen as a standard to evaluate second harmonic generation efficiencies. […] The efficiency of LD6 and IK3 were even three times higher than that of sucrose. These may due to their molecular structures. LD6 is known to form hydrogel at much lower concentrations compared to LK6. The trimer IK3 has larger dipole moment compared to LK6. […] This agrees with the previous findings. In Table 1, all the tested amyloid-like peptides were SHG-active with some showing even higher SHG efficiency than collagen subtypes. This provides a broad spectrum of materials as second harmonic probes.

[5] = SHG imaging and spectral analysis of peptide particles; format: physicochemical
Source text: as §4
To test whether the amyloid-like peptides of the present invention are SHG-active, we first investigated a hexamer peptide, Ac-LIVAGK-NH2, (LK6) (SEQ ID NO: 27). Peptide particles deposited on a glass microscope slide were examined under an SHG imaging system. Instrument details can be found in our previous work. During the whole experiments, only the backscattered geometry was employed because it is the only suitable configuration for in vivo imaging. We chose collagen I as a control. For more than a decade it has been shown that SHG microscopy can visualize supramolecular assembly of collagen in tissues. […] The fine structures of collagen and peptide particles can be clearly seen under SHG and scanning electron microscopy (SEM, FIG. 1a insert, 1b and 1c).
We further characterized LK6 peptide. […] When excited at 810 nm, LK6 emitted a sharp SHG peak at 405 nm (FIG. 2a). We then examined the excitation wavelength tunability of SHG signals from LK6 peptide. In FIG. 2b, as the excitation wavelength was increased from 810 to 890 nm, the wavelength of the SHG signals from the LK6 peptide particles increased from 405 to 445 nm respectively. Biological samples, such as cells and tissues, are known to have auto-fluorescence. With excitation wavelength tunability, we can better avoid auto-fluorescence. In addition, we can further increase penetration depth in tissues by simply increasing excitation wavelength. […] The band width (full width at half-maximum of Gaussian distribution, FWHM) was narrow (˜10 nm) and it obeys a relationship to the corresponding wavelength profile of the fundamental beam (˜15 nm). Moreover, we measured the dependence of the output signal on irradiation intensity by varying the 850 nm excitation intensity. […] (1)

HeLa cells [6] = assay: Calcein AM/EthD-1 live/dead staining, HeLa cells; format: cell-based, human; conditions: 48 h, 1 and 1000 μg/mL
Description: (§5) (b) Cytotoxicity determined by Calcein AM/EthD-1 (live/dead, green/red) staining method after 48 h treated with 1 and 1000 μg/mL LK6 peptide solutions using non-treated cells as control.
as §1, §3

[7] = tested on: primary human dermal fibroblasts (HDF); assay: Calcein AM/EthD-1 live/dead staining, HDF cells; format: cell-based; conditions: 48 h, 1 and 1000 μg/mL
Description: as §5, §1, §3

[8] = Hyper Rayleigh Scattering, ref [19]; cited from earlier work

Row | Substance | Hydrogel formation [2] | Powder SHG efficiency I^2ω/I^2ω(sucrose) [4] | further results
1 | Ac-LIVAGK-NH2 [LK6, Ac-LIVAGK-NH2] | self-assembled into hydrogels | 0.95 ± 0.19 | Cell viability (MTS) (HeLa cells [1]): either equivalent to or even higher than that of untreated cells; Cell viability (MTS) [3]: either equivalent to or even higher than that of untreated cells; SHG peak emission wavelength ([5]; excitation 810 nm): 405 nm; SHG band width (FWHM of Gaussian distribution) ([5]; excitation 850 nm): ~10 nm; SHG emission maximum (Gaussian fit) ([5]; excitation 850 nm): 425 nm; SHG signal wavelength ([5]; excitation 890 nm): 445 nm and 450 nm; Cytotoxicity by live/dead staining (HeLa cells [6]): no toxicity; Cytotoxicity by live/dead staining [7]: no toxicity
2 | LIVAGD (Ac-LIVAGD) [LD6, designed synthetic hexamer, negatively charged, acetylated at the N terminus] | self-assembled into hydrogels | 3.06 ± 0.65 | –
3 | GGVVIA (listed as Homo sapiens) [GA6] | self-assembled into hydrogels | 1.52 ± 0.43 | –
4 | DFNKF (listed as Homo sapiens) [DF5] | self-assembled into hydrogels | 0.89 ± 0.33 | –
5 | Type II: human collagen subtype II | – | 0.41 ± 0.13 | –
6 | GGG | – | – | First hyperpolarizability β [8]: about 0.087 ×10-30 esu
7 | Type I: human collagen subtype I, control and endogenous SHG probe | – | 1.23 ± 0.36 | First hyperpolarizability β [8]: 1250±20 ×10-30 esu
8 | KLVFFAE (listed as Homo sapiens) [KE7] | self-assembled into hydrogels | 3.18 ± 0.67 | –
9 | IVK [IK3] | self-assembled into hydrogels | 3.31 ± 0.57 | –
10 | ILVAGS (Ac-ILVAGS) [IS6, designed synthetic hexamer, neutral, acetylated at the N terminus] | self-assembled into hydrogels | 1.96 ± 0.58 | –
11 | PPG | – | – | First hyperpolarizability β [8]: about 0.087 ×10-30 esu
12 | NFGAIL (listed as Homo sapiens) [NL6] | self-assembled into hydrogels | 0.76 ± 0.21 | –
